Laboratory results taken from patent publication US20090175866A1, “TREATMENT OF B-CELL MALIGNANCIES” (priority 2004, published 2009).

How the values were obtained:
KMS18 (FGFR3-G384D) = assay: Viability of KMS18 myeloma cells; type: cell-based, human; settings: cells grow independent of FGF
Experimental: (§1) Non-transformed rat chondrocyte cell line expressing PGFR3 in an inducible manner (RCJ-FGFR3) has been described previously (Rauchenberger R. et al. J. Biol. Chem. 2003; 278:38194-205). Cells were maintained in α-Minimum Essential Media supplemented with 15% fetal calf serum (FCS), 2 mM L-Glutamine, 100 U/ml penicillin, 100 μg/ml streptomycin, 600 μg/ml G418 (Gibco BRL, Ontario, Canada), 2 μg/ml Tetracyclin (Sigma, Ontario, Canada), and 50 μg/ml HygromycinB (Gibco BRL). FGFR3 expression was induced by removal of tetracyclin and serum starvation. […]
(§2) Cell viability was assessed by 3-(4,5-dimethylthiazol)-2,5-diphenyl tetrazolium (MTT) or (2,3-bis(2-methoxy-4-nitro-5-sulphophenyl)-5-[(phenylamino) carbonyl]-2H-tetrazolium hydroxide (XTT) dye absorbance where indicated. Cells were seeded in 96-well plates at a density of 20,000 (FDCP-1 cells), 5,000 (B9 cells) or 25,000 cells (MM cell lines) per well in culture medium. Cells were incubated in the absence or presence of one of the following cytokines: 10 ng/ml FGF9 and 5 μg/ml heparin, 1% murine IL-6, 50 ng/ml IGF-1 or 50 ng/ml human IL-6 where indicated and increasing concentrations of PRO-001, control antibody (purified human Fab) or 100 nM PD173074. […]

FGFR3 = FGFR3 (Homo sapiens, UniProt P22607); assay: Affinity and Koff to FGFR3 measured by BIAcore; type: binding
Sequence of FGFR3 (P22607 23-806): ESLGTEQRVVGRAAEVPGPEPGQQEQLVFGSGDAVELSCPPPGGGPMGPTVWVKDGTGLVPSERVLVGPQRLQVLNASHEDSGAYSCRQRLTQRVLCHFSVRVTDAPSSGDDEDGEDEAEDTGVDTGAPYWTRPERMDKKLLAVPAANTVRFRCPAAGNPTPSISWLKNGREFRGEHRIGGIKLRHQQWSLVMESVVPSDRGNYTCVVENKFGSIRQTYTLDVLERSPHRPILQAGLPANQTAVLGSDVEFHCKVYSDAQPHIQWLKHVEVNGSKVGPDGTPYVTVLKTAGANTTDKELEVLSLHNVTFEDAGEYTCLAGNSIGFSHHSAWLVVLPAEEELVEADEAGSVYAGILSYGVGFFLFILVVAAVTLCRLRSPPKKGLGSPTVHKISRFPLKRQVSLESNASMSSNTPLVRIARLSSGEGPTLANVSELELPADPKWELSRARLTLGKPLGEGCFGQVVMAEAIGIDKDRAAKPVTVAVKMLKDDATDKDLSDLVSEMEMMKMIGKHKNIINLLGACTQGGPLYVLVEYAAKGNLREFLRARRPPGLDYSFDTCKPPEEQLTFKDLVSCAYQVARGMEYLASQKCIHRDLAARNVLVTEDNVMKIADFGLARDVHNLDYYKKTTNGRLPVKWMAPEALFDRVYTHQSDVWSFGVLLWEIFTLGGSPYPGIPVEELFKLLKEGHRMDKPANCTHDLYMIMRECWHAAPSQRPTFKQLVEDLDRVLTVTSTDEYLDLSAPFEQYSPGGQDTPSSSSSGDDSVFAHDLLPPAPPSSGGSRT

WT FGFR3 [1] = biological target: T1, WT FGFR3 (Homo sapiens, UniProt P22607); assay: Ligand-stimulated receptor phosphorylation in RCJ-FGFR3 cells (immunoprecipitation, Western blot); type: cell-based
T1 construct: expressed in transfected cells; host or cells: B9 cells
T1 sequence (P22607 23-806): as above
Experimental: FIG. 1C is a photograph of a Western blot showing immune staining of RCJ-FGFR3 cell lysates. RCJ cells were stimulated with FGF (+) with or without pre-incubation with a Fab. Lane 1—no FGF stimulation and no pre-incubation with a Fab. Lane 2—FGF stimulation, no pre-incubation with a Fab. Lane 3—FGF stimulation and pre incubation with a control (C) antibody. Lane 4—FGF stimulation and pre-incubation with an anti-FGFR3 (001) Fab.
as §1, with “BRL).” for “BRL). FGFR3 expression was induced by removal of tetracyclin and serum starvation.”
Cells were lysed in lysis buffer (50 mM Tris/HCl, pH 8.0, 150 mM […], 0.1 mM ZnCl2, 0.5% Nonidet NP-40, 1 mg/ml, complete protease inhibitor mix (Roche Molecular Biochemicals, Mannheim, Germany)), and clarified by centrifugation at 12,000×g for 15 minutes. The lysates were subjected to immunoprecipitation for 16 hours at 4° C. with anti-FGFR3 (C15) and analyzed by 7.5% sodium dodecyl-polyacrylamide gel electrophoresis (SDS-PAGE) and Western blot with anti-phosphotyrosine (4G10 from R&D). […]

FGFR3-G394D = biological target: T2, FGFR3-G394D (Homo sapiens, UniProt P22607, G382D); assay: FGF-stimulated growth of B9 cells expressing G394D-FGFR3; type: cell-based
T2 construct: expressed in transfected cells; host or cells: B9 cells
T2 sequence (P22607 23-806 G382D): as the sequence (P22607 23-806) above, with G360D counted along it
Experimental: as §1, §2

WT FGFR3 [2] = biological target: T1, WT FGFR3; assay: Viability of FGF-stimulated B9-FGFR3^WT cells; type: cell-based
Experimental: FIG. 1B is a graph showing viability of B9-FGFR WT cells treated with different concentrations of PRO-001. The filled bars represent the control (no PRO-001). The dotted bars represent PRO-001 treated cells.
as §1, with “BRL).” for “BRL). FGFR3 expression was induced by removal of tetracyclin and serum starvation.”
as §2

B1: PRO-001: human anti-FGFR3 Fab from HuCAL library; VH-CDR3 SEQ ID NO:1, VL-CDR3 SEQ ID NO:10; VH SEQ ID NO:19, VL SEQ ID NO:28 (antibody, V domains shown)
VH: QVQLQQSGPGLVKPSQTLSLTCAISGDSVSSNSAAWNWIRQSPGRGLEWLGRTYYRSKWYNDYAVSVKSRITINPDTSKNQFSLQLNSVTPEDTAVYYCARSYYPDFDYWGQGTLVTVSS
VL: DIELTQPPSVSVAPGQTARISCSGDALGDKYASWYQQKPGQAPVLVIYDDSDRPSGIPERFSGSNSGNTATLTISGTQAEDEADYYCQSYDGPDLWVFGGGTKLTVLGQ
Viability of KMS18 (FGFR3-G384D) (KMS18 (FGFR3-G384D)): failed to inhibit the viability | Kd (FGFR3): 1.5 nM | Downstream JNK phosphorylation (WT FGFR3 [1]): reduction in downstream JNK phosphorylation | Ligand-stimulated autophosphorylation of FGFR3 (WT FGFR3 [1]; anti-phosphotyrosine immunoblot): inhibited | IC50, FGF-stimulated growth of cells expressing G394D-FGFR3 (FGFR3-G394D): approximately 3 μg/ml | Growth inhibition of FGF stimulated B9-FGFR3^WT cells (WT FGFR3 [2]; 1 μg/ml antibody): about 25% | Growth inhibition of FGF stimulated B9-FGFR3^WT cells (WT FGFR3 [2]; 5 μg/ml antibody): more than 60%
